Positions count from the first letter of the chain named.
T1: cynomolgus monkey CTLA4 on stably transfected CHO-K1 cells (human CTLA4 cDNA with S13N, I17T and L105M) (human backbone with cynomolgus monkey …, UniProt P16410 36-223)
T1 chain: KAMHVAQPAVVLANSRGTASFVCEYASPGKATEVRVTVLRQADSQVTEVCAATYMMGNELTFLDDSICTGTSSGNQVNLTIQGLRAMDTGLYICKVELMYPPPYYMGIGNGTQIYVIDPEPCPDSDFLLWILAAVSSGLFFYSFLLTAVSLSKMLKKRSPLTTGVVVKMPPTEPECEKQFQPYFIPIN

T2: HuCD86-HuIgG1 (fusion protein of the extracellular part of human CD86 and human Fc gamma 1, R&D Systems Cat … (human, UniProt P42081 24-247))
T2 construct: extracellular domain; bought; also called CD86-IgG1; CD86-Ig; not shown: human Fc gamma 1
T2 sequence (looked up): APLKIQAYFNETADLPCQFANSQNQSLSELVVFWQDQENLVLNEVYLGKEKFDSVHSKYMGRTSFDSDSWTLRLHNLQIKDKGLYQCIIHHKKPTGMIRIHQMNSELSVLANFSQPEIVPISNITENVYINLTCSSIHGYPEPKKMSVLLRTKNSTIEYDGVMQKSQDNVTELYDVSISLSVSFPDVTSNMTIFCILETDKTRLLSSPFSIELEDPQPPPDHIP

T3: HuCD80-HuIgG1 (fusion protein of the extracellular part of human CD80 and human Fc gamma 1, R&D Systems Cat … (human, UniProt P33681 35-242))
T3 construct: extracellular domain; bought, produced in NS0 cells; also called CD80-IgG1; CD80-Ig; not shown: human Fc gamma 1
T3 sequence (looked up): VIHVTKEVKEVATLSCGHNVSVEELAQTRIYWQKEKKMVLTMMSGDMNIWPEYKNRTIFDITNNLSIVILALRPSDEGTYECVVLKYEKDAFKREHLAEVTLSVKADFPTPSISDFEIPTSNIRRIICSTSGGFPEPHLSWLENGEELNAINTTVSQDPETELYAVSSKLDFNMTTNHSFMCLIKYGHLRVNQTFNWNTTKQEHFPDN

B1: 4CTLAPMP02A5 (VHH)
VHH: EVQLVESGGGLVQAGGSLRLSCAASGRTNSTTLMGWSRRAPGKEREFVAAISGSGTLTSYADSVKGRFAISRDNAKNTVYLQMNSLKPEDTAIYYCAAGLTSWALIPSRTLTTWGQGTQVTVSS
notes: short label tied to the entry by the clone code only; not shown: C-terminal c-myc tag and His6 tag
B2: 4CTLAPMP03C4 (VHH)
VHH: EVQLVESGGGLVQAGGSLRLSCAASGGTFSFYGMGWFRQAPGKEREFVADIRTSAGRTYYADSVKGRFTISRDNAKNTVYLQMNSLKPEDTAVYYCAAEMSGISGWDYWGQGTQVTVSS
notes: as for B1
B3: 4CTLAPMP06C10 (VHH)
VHH: EVQLVESGGGLVQAGGSLRLSCAASGRTFSNYTIAYFRQAPGREREFAAAISPHGTLRSFADSVKDRFTISRDNAKNTVWLQMNSLKLEDTAVYYCAADPSGWGLRQHSENEYPYWGLGTQVTVSS
notes: as for B1
B4: 4CTLAPMP11E3 (VHH)
VHH: EVQLVESGGGLVEPGGSLRLSCAASGSISSYNVMGWYRQAPGQQRDLVAHIASNGEIMYADSAKGRFTISRDNAKKTVYLQMNSLKPEDTAVYYCKLWVLGNDYWGQGTQVTVSS
notes: also called 11E3 WT; not shown: C-terminal c-myc tag and His6 tag
B5: 4CTLAPMP12H2 (VHH)
VHH: B4 VHH with G108R
notes: as for B1
B6: CD8086PMP1B2 (VHH)
VHH: EVQLVESGGGLVQAGGSLRLSCAASGRSFSSYVMGWFRQAPGKEREFVAAIIGRDIGTYYADSVKGRFTISRDNAKTTVYLQMNALKPEDTAVYYCAADSRSRLSGIRSAYDYWGQGTVTVSS
notes: not shown: C-terminal c-myc tag and His6 tag
B7: CD8086PMP2B10 (VHH)
VHH: EVQLVESGGGLVQAGGSLRLSCTGSQISFSDNTMNWYRQVPGKQRELVASLSIFGATGYADSVKGRFTISRDIAGNTVYLQMNDLKIEDTAVYYCKLGPVRRSRLEYWGQGTQVTVSS
notes: as for B6
B8: CD8086PMP1A3 (VHH)
VHH: EVQLVESGGGLVQAGGSLRLSCAASGPTSSSYSMGWFRQAPGKEREFVAAINWSHGVTYYADSVKGRFTISRDIAKNTVYLQMNSLKPEDTAVYYCAANEYGLGSSIYAYKHWGQGTQVTVSS
notes: as for B6
B9: CD8086PMP2E6 (VHH)
VHH: EVQLVESGGGLVQAGGSLRLSCAASGSIFSIYDMGWYRQAPGKQRVLVATITSGGSTNYADSVKGRFTISRDDAKNTVYLQMNSLKPEDTAVYYCNAIAHEEGVYRWDFWGQGTQVTVSS
notes: as for B6
B10: CD8086PMP2F5 (VHH)
VHH: B9 VHH with E6K, V46E, T50A, D73N, H100Y
notes: as for B6
B11: CD8086PMP1D1 (VHH)
VHH: EVQLVESGGGLVQAGGSLRLSCAASGRTFSSKAMGWFRQAPGKERDFVAAITWSGGSTYYADHVKGRFTISRDNAKNTVYLQMNSLKPEDTAVYYCATNPYGLGQVGYDYWGQGTQVTVSS
notes: as for B6
B12: CD8086PMP2A7 (VHH)
VHH: B11 VHH
notes: as for B6
B13: 4CTLAPMP13B2 (VHH)
VHH: EVQLVESGGGLVQPGGSLRLSCVASGIHFAISTINWYRQAPGKQRESVAAITGTSVTGYADSVKGRFTLSRDNAKNTVYLQMDNLKPEDTAVYYCNVWSGRDYWGQGTQVTVSS
notes: as for B1
B14: 4CTLAPMP17E3 (VHH)
VHH: EVQLMESGGGLVTAGGSLRLSCAASGGTFGHYAMAWFRRPPGNEREFVAGIGWTYTTFYADSVKGRFAISRDNAENTVYLQMNNLKPDDTAVYYCAAAELKGRNLRVPDYEHWGQGTQVTVSS
notes: as for B1
B15: 4CTLAPMP10G5 (VHH)
VHH: EVQLVESGGGLVQAGGSLRLSCAASGGTFSRYIMAWFRQAPGKEREFVAVIDGSGYSTDYAGSVKGRFTIARDNTKNTAYLQMNSLKPEDTALYFCGAGRQYSTGPYWYDYWGQGTQVTVSS
notes: as for B1
B16: 4CTLAPMP02C11 (VHH)
VHH: EVQLVESGGGLVQPGGSLRLSCAASGNIFTRHIMGWYRQAPGKQRELVASITPGDNINYADSVKGRFTISRDGAKNTVYLQMNSLKPEDTAVYYCNAHGSILLDRTNYWGQGTQVTVSS
notes: as for B1
B17: 4CTLAPMP08E5 (VHH)
VHH: B16 VHH with G26R, N27D, H32N, E46D, D55G, I57M, N58Y, T106S
notes: label 8E5.4 tied to 4CTLAPMP08E5 by the clone code only; the suffix .4 is not explained; also called 8E5.4; not shown: C-terminal c-myc tag and His6 tag
B18: 4CTLAPMP03A6 (VHH)
VHH: EVQLVESGGGLVQPGGSLRLSCAAPGRTFSNYAMGWFRQAPGKGREFVADIRWSDGRTYYADSVKGRFTVSRDNAKNTVYLQMNSLKPEDTAVYYCAAQGGVLSGWDYWGQGTQVTVSS
notes: as for B1

Target: T1, cynomolgus monkey CTLA4 on stably …
Assay: FACS, direct binding titration on cyno CTLA4 CHO cells (head prints IC50)

IC50	Binder
7.74 nM	B1
6.73 nM	B2
5.47 nM	B3
4.5 nM	B4
5.65 nM	B5

Target: T2, HuCD86-HuIgG1 (fusion protein of the …)
Assay: SPR, Biacore 3000, antigen amine-coupled
Description: (§1) Affinity constants (Kd) of individual purified Nanobody clones were determined by surface plasmon resonance on a Biacore 3000 instrument. […] Remaining reactive groups were inactivated using ethanolamine. Nanobody binding was assessed at 1 and 0.1 microM. Each sample was injected for 4 min at a flow rate of 45 μl/min to allow for binding to chip-bound antigen. Next, binding buffer without Nanobody was sent over the chip at the same flow rate to allow for dissociation of bound Nanobody. After 2 min, remaining bound analyte was removed by injecting regeneration solution (50 mM NaOH or Glycine/HCl pH 1.5). Binding curves obtained at different concentrations of Nanobody were used to calculate Kd values.

binding result	Kd	koff	kon	Binder
no binding (tested: 1 and 0.1 microM)	–	–	–	B6
–	4 nM	0.00097 s⁻¹	250000 M⁻¹ s⁻¹	B7

Target: T3, HuCD80-HuIgG1 (fusion protein of the …)
Assay: SPR, Biacore 3000, antigen amine-coupled
Description: as §1

Kd	koff	kon	Binder
0.13 nM	5.9e-05 s⁻¹	440000 M⁻¹ s⁻¹	B6

Target: T4, Human IgG1, purified from a human plasma (Sigma-Aldrich Cat #I-5154) (human)
T4 construct: also called HuIgG1
Assay: ELISA, periplasmic extract on coated antigen, anti-myc detection
From the text: (§2) To this end, 3 independent ELISA assays were set up. In these ELISAs, either HuCD80 or HuCD86 fusion proteins or human IgG1 were coated on ELISA plates which were washed and then blocked using Marvel skimmed milk powder (Premier Brands UK Ltd., Wirral, Merseyside, UK). […] Four aliquots of periplasmic extract of individual clones prepared as described in Example 4 were allowed to bind in all four types of ELISA plates. Binding of Nanobody to immobilized antigen was detected using mouse anti-c-myc tag monoclonal antibody as a secundary, followed by a goat-anti-mouse (human and bovine serum protein pre-absorbed) HRP conjugate for detection (for detailed protocol, see the prior art and prior applications filed by applicant).

OD	Binder
0.046 OD	B6
0.044 OD	B7
0.052 OD	B8
0.049 OD	B9
0.056 OD	B10
0.046 OD	B11
0.043 OD	B12

Target: T2, HuCD86-HuIgG1 (fusion protein of the …)
Assay: as above
From the text: as §2

OD	Binder
0.038 OD	B6
1.73 OD	B7
0.053 OD	B8
0.538 OD	B9
0.774 OD	B10
0.043 OD	B11
0.042 OD	B12

Target: T3, HuCD80-HuIgG1 (fusion protein of the …)
Assay: as above
From the text: as §2

OD	Binder
1.99 OD	B6
1.92 OD	B8
1.52 OD	B9
1.65 OD	B10
1.89 OD	B11
1.71 OD	B12

Target: T5, HuCTLA4-HuIgG1 (fusion protein of the extracellular part of human CD152 and human Fc gamma 1, CTLA4-Ig) (human, UniProt P16410 36-161)
T5 construct: extracellular domain; also called CTLA4-hFc; CTLA4-Fc; not shown: human Fc gamma 1
T5 sequence (P16410 36-161 limits assumed): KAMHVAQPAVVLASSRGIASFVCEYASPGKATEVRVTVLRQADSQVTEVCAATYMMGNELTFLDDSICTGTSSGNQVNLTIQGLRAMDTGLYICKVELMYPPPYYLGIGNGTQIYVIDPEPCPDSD
Assay: SPR, Biacore T100, CTLA4-Ig amine-coupled
Description: Affinity constants (Kd) of individual purified Nanobody clones were determined by surface plasmon resonance on a Biacore T100 instrument. […] Remaining reactive groups were inactivated using ethanolamine. […] Each sample was injected for 2 min at a flow rate of 45 μl/min to allow for binding to chip-bound antigen. Next, binding buffer without Nanobody was sent over the chip at the same flow rate to allow for dissociation of bound Nanobody. After 2 min, remaining bound analyte was removed by injecting regeneration solution (10 mM Glycine/HCl pH 1.5). Binding curves obtained at different concentrations of Nanobody were used to calculate KD values. For some clones, only a single undetermined concentrations of Nanobody was injected.

koff	Kd	kon	Binder
0.0067 s⁻¹	–	–	B13
0.00489 s⁻¹	–	–	B14
0.0053 s⁻¹	–	–	B1
0.0205 s⁻¹	–	–	B2
0.00279 s⁻¹	–	–	B3
0.00618 s⁻¹	–	–	B15
0.0235 s⁻¹	–	–	B16
0.00386 s⁻¹	–	–	B17
0.00496 s⁻¹	10 nM	742000 M⁻¹ s⁻¹	B4
0.00258 s⁻¹	7.52 nM	349000 M⁻¹ s⁻¹	B5
0.0018 s⁻¹	–	–	B18

Target: T6, human CTLA4 (Y201 mutated to valine) on stably transfected CHO-K1 cells (human, UniProt P16410 36-223)
T6 construct: whole, on cells; the mutation of the intracellular position Y201 keeps the protein on the membrane; also called human CTLA4 overexpressing CHO cells; human CTLA4 transfectant
T6 sequence (P16410 other isoform, or with tags, fused parts or gaps, change not shown): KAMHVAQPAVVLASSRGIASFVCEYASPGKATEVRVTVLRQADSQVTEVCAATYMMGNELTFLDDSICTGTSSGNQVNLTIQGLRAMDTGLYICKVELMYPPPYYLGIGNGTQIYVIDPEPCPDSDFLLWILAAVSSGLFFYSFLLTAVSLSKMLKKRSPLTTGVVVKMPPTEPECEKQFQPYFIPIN
Assay: FACS, direct binding titration on human CTLA4 CHO cells (head prints IC50)
Description: Binding of putative CTLA4 reactive Nanobodies clones was detected using unlabeled anti-c-myc tag mouse monoclonal antibody 9E10, followed by a phycoerythrin conjugated F(ab′)2 derived from goat-anti-mouse IgG (human and bovine crossabsorbed), and read on a BD FACSarray instrument. Dead cells were excluded from the analysis by gating out TOPRO3 vital dye positive scoring cells. Binding of the Nanobodies to cells was evaluated in BD FACSarray control software as PE channel histograms.

IC50	Binder
3.6 nM	B13
11.2 nM	B14
5.72 nM	B1
8.06 nM	B2
5.73 nM	B3
4.65 nM	B15
4.91 nM	B4
5.82 nM	B5

Reference: US20240182575A1 (Ablynx, published 2024)
